Measured values as given in patent publication US20210388087A1 (Chugai, published 2021).

B1: CE115HA000 A102V (antibody, human IgG1, kappa, L234A L235A, N297A, name in Kabat numbering)
heavy: QVQLVESGGGVVQPGRSLRLSCAASGFTFSNAWMHWVRQAPGKGLEWVAQIKAKSNNYATYYAESVKGRFTISRDDSKNSLYLQMNSLKTEDTAVYYCRYVHYGAYYGVDVWGQGTTVTVSSASTKGPSVFPLAPSSKSTSGGTAALGCLVKDYFPEPVTVSWNSGALTSGVHTFPAVLQSSGLYSLSSVVTVPSSSLGTQTYICNVNHKPSNTKVDKKVEPKSCDKTHTCPPCPAPEAAGGPSVFLFPPKPKDTLMISRTPEVTCVVVDVSHEDPEVKFNWYVDGVEVHNAKTKPREEQYASTYRVVSVLTVLHQDWLNGKEYKCKVSNKALPAPIEKTISKAKGQPREPQVYTLPPSRCELTKNQVSLSCAVKGFYPSDIAVEWESNGQPENNYKTTPPVLDSDGSFFLVSKLTVDKSRWQQGNVFSCSVMHEALHNHYTQKSLSLSPDYKDDDDK
chain: EPKSSDKTHTCPPCPAPELLGGPSVFLFPPKPKDTLMISRTPEVTCVVVDVSHEDPEVKFNWYVDGVEVHNAKTKPREEQYNSTYRVVSVLTVLHQDWLNGKEYKCKVSNKALPAPIEKTISKAKGQPREPQVCTLPPSRDELTKNQVSLWCLVKGFYPSDIAVEWESNGQPENNYKTTPPVLDSDGSFFLYSKLTVDKSRWQQGNVFSCSVMHEALHNRYTQKSLSLSP
light: DIVMTQSPLSLPVTPGEPASISCRSSQSLVHSNRNTYLHWYQQKPGQAPRLLIYKVSNRFSGVPDRFSGSGSGTDFTLKISRVEAEDVGVYYCGQGTQVPYTFGQGTKLEIKRTVAAPSVFIFPPSDEQLKSGTASVVCLLNNFYPREAKVQWKVDNALQSGNSQESVTEQDSKDSTYSLSSTLTLSKADYEKHKVYACEVTHQGLSSPVTKSFNRGEC
notes: one-arm antibody
B2: CE115HA000 D72E (antibody, human IgG1, kappa, L234A L235A, N297A, name in Kabat numbering)
heavy: QVQLVESGGGVVQPGRSLRLSCAASGFTFSNAWMHWVRQAPGKGLEWVAQIKAKSNNYATYYAESVKGRFTISREDSKNSLYLQMNSLKTEDTAVYYCRYVHYGAYYGVDAWGQGTTVTVSSASTKGPSVFPLAPSSKSTSGGTAALGCLVKDYFPEPVTVSWNSGALTSGVHTFPAVLQSSGLYSLSSVVTVPSSSLGTQTYICNVNHKPSNTKVDKKVEPKSCDKTHTCPPCPAPEAAGGPSVFLFPPKPKDTLMISRTPEVTCVVVDVSHEDPEVKFNWYVDGVEVHNAKTKPREEQYASTYRVVSVLTVLHQDWLNGKEYKCKVSNKALPAPIEKTISKAKGQPREPQVYTLPPSRCELTKNQVSLSCAVKGFYPSDIAVEWESNGQPENNYKTTPPVLDSDGSFFLVSKLTVDKSRWQQGNVFSCSVMHEALHNHYTQKSLSLSPDYKDDDDK
chain: EPKSSDKTHTCPPCPAPELLGGPSVFLFPPKPKDTLMISRTPEVTCVVVDVSHEDPEVKFNWYVDGVEVHNAKTKPREEQYNSTYRVVSVLTVLHQDWLNGKEYKCKVSNKALPAPIEKTISKAKGQPREPQVCTLPPSRDELTKNQVSLWCLVKGFYPSDIAVEWESNGQPENNYKTTPPVLDSDGSFFLYSKLTVDKSRWQQGNVFSCSVMHEALHNRYTQKSLSLSP
light: DIVMTQSPLSLPVTPGEPASISCRSSQSLVHSNRNTYLHWYQQKPGQAPRLLIYKVSNRFSGVPDRFSGSGSGTDFTLKISRVEAEDVGVYYCGQGTQVPYTFGQGTKLEIKRTVAAPSVFIFPPSDEQLKSGTASVVCLLNNFYPREAKVQWKVDNALQSGNSQESVTEQDSKDSTYSLSSTLTLSKADYEKHKVYACEVTHQGLSSPVTKSFNRGEC
notes: one-arm antibody
B3: CE115HA000 D72V (antibody, human IgG1, kappa, L234A L235A, N297A, name in Kabat numbering)
heavy: QVQLVESGGGVVQPGRSLRLSCAASGFTFSNAWMHWVRQAPGKGLEWVAQIKAKSNNYATYYAESVKGRFTISRVDSKNSLYLQMNSLKTEDTAVYYCRYVHYGAYYGVDAWGQGTTVTVSSASTKGPSVFPLAPSSKSTSGGTAALGCLVKDYFPEPVTVSWNSGALTSGVHTFPAVLQSSGLYSLSSVVTVPSSSLGTQTYICNVNHKPSNTKVDKKVEPKSCDKTHTCPPCPAPEAAGGPSVFLFPPKPKDTLMISRTPEVTCVVVDVSHEDPEVKFNWYVDGVEVHNAKTKPREEQYASTYRVVSVLTVLHQDWLNGKEYKCKVSNKALPAPIEKTISKAKGQPREPQVYTLPPSRCELTKNQVSLSCAVKGFYPSDIAVEWESNGQPENNYKTTPPVLDSDGSFFLVSKLTVDKSRWQQGNVFSCSVMHEALHNHYTQKSLSLSPDYKDDDDK
chain: EPKSSDKTHTCPPCPAPELLGGPSVFLFPPKPKDTLMISRTPEVTCVVVDVSHEDPEVKFNWYVDGVEVHNAKTKPREEQYNSTYRVVSVLTVLHQDWLNGKEYKCKVSNKALPAPIEKTISKAKGQPREPQVCTLPPSRDELTKNQVSLWCLVKGFYPSDIAVEWESNGQPENNYKTTPPVLDSDGSFFLYSKLTVDKSRWQQGNVFSCSVMHEALHNRYTQKSLSLSP
light: DIVMTQSPLSLPVTPGEPASISCRSSQSLVHSNRNTYLHWYQQKPGQAPRLLIYKVSNRFSGVPDRFSGSGSGTDFTLKISRVEAEDVGVYYCGQGTQVPYTFGQGTKLEIKRTVAAPSVFIFPPSDEQLKSGTASVVCLLNNFYPREAKVQWKVDNALQSGNSQESVTEQDSKDSTYSLSSTLTLSKADYEKHKVYACEVTHQGLSSPVTKSFNRGEC
notes: one-arm antibody
B4: CE115HA000 A102Y (antibody, human IgG1, kappa, L234A L235A, N297A, name in Kabat numbering)
heavy: QVQLVESGGGVVQPGRSLRLSCAASGFTFSNAWMHWVRQAPGKGLEWVAQIKAKSNNYATYYAESVKGRFTISRDDSKNSLYLQMNSLKTEDTAVYYCRYVHYGAYYGVDYWGQGTTVTVSSASTKGPSVFPLAPSSKSTSGGTAALGCLVKDYFPEPVTVSWNSGALTSGVHTFPAVLQSSGLYSLSSVVTVPSSSLGTQTYICNVNHKPSNTKVDKKVEPKSCDKTHTCPPCPAPEAAGGPSVFLFPPKPKDTLMISRTPEVTCVVVDVSHEDPEVKFNWYVDGVEVHNAKTKPREEQYASTYRVVSVLTVLHQDWLNGKEYKCKVSNKALPAPIEKTISKAKGQPREPQVYTLPPSRCELTKNQVSLSCAVKGFYPSDIAVEWESNGQPENNYKTTPPVLDSDGSFFLVSKLTVDKSRWQQGNVFSCSVMHEALHNHYTQKSLSLSPDYKDDDDK
chain: EPKSSDKTHTCPPCPAPELLGGPSVFLFPPKPKDTLMISRTPEVTCVVVDVSHEDPEVKFNWYVDGVEVHNAKTKPREEQYNSTYRVVSVLTVLHQDWLNGKEYKCKVSNKALPAPIEKTISKAKGQPREPQVCTLPPSRDELTKNQVSLWCLVKGFYPSDIAVEWESNGQPENNYKTTPPVLDSDGSFFLYSKLTVDKSRWQQGNVFSCSVMHEALHNRYTQKSLSLSP
light: DIVMTQSPLSLPVTPGEPASISCRSSQSLVHSNRNTYLHWYQQKPGQAPRLLIYKVSNRFSGVPDRFSGSGSGTDFTLKISRVEAEDVGVYYCGQGTQVPYTFGQGTKLEIKRTVAAPSVFIFPPSDEQLKSGTASVVCLLNNFYPREAKVQWKVDNALQSGNSQESVTEQDSKDSTYSLSSTLTLSKADYEKHKVYACEVTHQGLSSPVTKSFNRGEC
notes: one-arm antibody
B5: CE115HA000 D73A (antibody, human IgG1, kappa, L234A L235A, N297A, name in Kabat numbering)
heavy: QVQLVESGGGVVQPGRSLRLSCAASGFTFSNAWMHWVRQAPGKGLEWVAQIKAKSNNYATYYAESVKGRFTISRDASKNSLYLQMNSLKTEDTAVYYCRYVHYGAYYGVDAWGQGTTVTVSSASTKGPSVFPLAPSSKSTSGGTAALGCLVKDYFPEPVTVSWNSGALTSGVHTFPAVLQSSGLYSLSSVVTVPSSSLGTQTYICNVNHKPSNTKVDKKVEPKSCDKTHTCPPCPAPEAAGGPSVFLFPPKPKDTLMISRTPEVTCVVVDVSHEDPEVKFNWYVDGVEVHNAKTKPREEQYASTYRVVSVLTVLHQDWLNGKEYKCKVSNKALPAPIEKTISKAKGQPREPQVYTLPPSRCELTKNQVSLSCAVKGFYPSDIAVEWESNGQPENNYKTTPPVLDSDGSFFLVSKLTVDKSRWQQGNVFSCSVMHEALHNHYTQKSLSLSPDYKDDDDK
chain: EPKSSDKTHTCPPCPAPELLGGPSVFLFPPKPKDTLMISRTPEVTCVVVDVSHEDPEVKFNWYVDGVEVHNAKTKPREEQYNSTYRVVSVLTVLHQDWLNGKEYKCKVSNKALPAPIEKTISKAKGQPREPQVCTLPPSRDELTKNQVSLWCLVKGFYPSDIAVEWESNGQPENNYKTTPPVLDSDGSFFLYSKLTVDKSRWQQGNVFSCSVMHEALHNRYTQKSLSLSP
light: DIVMTQSPLSLPVTPGEPASISCRSSQSLVHSNRNTYLHWYQQKPGQAPRLLIYKVSNRFSGVPDRFSGSGSGTDFTLKISRVEAEDVGVYYCGQGTQVPYTFGQGTKLEIKRTVAAPSVFIFPPSDEQLKSGTASVVCLLNNFYPREAKVQWKVDNALQSGNSQESVTEQDSKDSTYSLSSTLTLSKADYEKHKVYACEVTHQGLSSPVTKSFNRGEC
notes: one-arm antibody
B6: CE115HA000 D72A (antibody, human IgG1, kappa, L234A L235A, N297A, name in Kabat numbering)
heavy: QVQLVESGGGVVQPGRSLRLSCAASGFTFSNAWMHWVRQAPGKGLEWVAQIKAKSNNYATYYAESVKGRFTISRADSKNSLYLQMNSLKTEDTAVYYCRYVHYGAYYGVDAWGQGTTVTVSSASTKGPSVFPLAPSSKSTSGGTAALGCLVKDYFPEPVTVSWNSGALTSGVHTFPAVLQSSGLYSLSSVVTVPSSSLGTQTYICNVNHKPSNTKVDKKVEPKSCDKTHTCPPCPAPEAAGGPSVFLFPPKPKDTLMISRTPEVTCVVVDVSHEDPEVKFNWYVDGVEVHNAKTKPREEQYASTYRVVSVLTVLHQDWLNGKEYKCKVSNKALPAPIEKTISKAKGQPREPQVYTLPPSRCELTKNQVSLSCAVKGFYPSDIAVEWESNGQPENNYKTTPPVLDSDGSFFLVSKLTVDKSRWQQGNVFSCSVMHEALHNHYTQKSLSLSPDYKDDDDK
chain: EPKSSDKTHTCPPCPAPELLGGPSVFLFPPKPKDTLMISRTPEVTCVVVDVSHEDPEVKFNWYVDGVEVHNAKTKPREEQYNSTYRVVSVLTVLHQDWLNGKEYKCKVSNKALPAPIEKTISKAKGQPREPQVCTLPPSRDELTKNQVSLWCLVKGFYPSDIAVEWESNGQPENNYKTTPPVLDSDGSFFLYSKLTVDKSRWQQGNVFSCSVMHEALHNRYTQKSLSLSP
light: DIVMTQSPLSLPVTPGEPASISCRSSQSLVHSNRNTYLHWYQQKPGQAPRLLIYKVSNRFSGVPDRFSGSGSGTDFTLKISRVEAEDVGVYYCGQGTQVPYTFGQGTKLEIKRTVAAPSVFIFPPSDEQLKSGTASVVCLLNNFYPREAKVQWKVDNALQSGNSQESVTEQDSKDSTYSLSSTLTLSKADYEKHKVYACEVTHQGLSSPVTKSFNRGEC
notes: one-arm antibody

Target: T1, CD3 epsilon homodimer protein (UniProt P07766 23-126)
T1 construct: also called CD3 (CD3 epsilon)
T1 sequence (P07766 23-126): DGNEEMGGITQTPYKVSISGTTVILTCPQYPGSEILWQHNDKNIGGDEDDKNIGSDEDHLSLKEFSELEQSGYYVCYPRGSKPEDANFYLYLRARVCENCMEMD
Assay: SPR, CD3 epsilon homodimer on chip, one-arm antibody as analyte;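 further: surface plasmon resonance at 25 °C with CD3 epsilon homodimer amine-coupled to a CM4 sensor chip, antibody injected as analyte, HBS-EP+ as running buffer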

Going from B1 to B2, the “KD ratio (KD of CE115HA000/KD of altered form)” value (from here on “KD ratio”) falls from 1.27 to 0.73.

Going from B3 to B4, the “KD ratio” value falls from 1.17 to 1.

Compared with B5, B6 is higher in “KD ratio” value: 0.73 for the first, 1.19 for the second.
